Measured values reported in paper PMC4768246, “A novel cold-adapted and highly salt-tolerant esterase from Alkalibacterium sp. SL3 from the sediment of a soda lake” (Scientific Reports, 2016).

Substrate: CC(=O)Oc1ccc([N+](=O)[O-])cc1
Test: purified protein
Format: biochemical, Alkalibacterium sp. SL3
Conditions: 50 mM Tris-HCl pH 9.0, 30 °C, 5 min, 0.05–5 mM substrate

B1: EstSL3 (rEstSL3) (Alkalibacterium sp. SL3) (protein)
chain: MKINKNDTLLFIGDSITDVGRDRMDGEDLGKGFPLMVASHLQSRYPAKRLTVLNRGIGGDSLKDLKRRWEDDCLITNPDIVTLLIGVNDTWRNQNDGVELTDEELDEFESDYRFLLKSLHQRTDARVILMESFVLPYPKRRVGWRNDLDKRIQIVRKMARDYQTELIPLDGLLNAAGIRDGFSYYTGDDGVHPTVAGHGLIANSWLKAVDE
notes: His6-tagged from pET-28a(+) (NcoI-HindIII), E. coli BL21(DE3), Ni-NTA; internal peptides LTVLNRGIGGDSLKDLK, TDARVILMESFVLPYPKR, VGWRNDLDK; catalytic Ser15, Asp189, His192
  Km: 150 ± 10 µM
  kcat: 307.69 s⁻¹
